B1: NPM1 histone and RNA-binding domains (NPM1^HRBD, aa 120-294), tag cleaved (domain or fragment, UniProt P06748 120-294, looked up)
chain: EEDAESEDEEEEDVKLLSISGKRSAPGGGSKVPQKKVKLAADEDDDDDDEEDDDEDDDDDDFDDEEAEEKAPVKKSIRDTPAKNAQKSNQNGKDSKPSSTPRSKGQESFKKQEKTPKTPKGPSSVEDIKAKMQASIEKGGSLPKVEAKFINYVKNCFRMTDQEAIQDLWQWRKSL
notes: also called NPM^HRBD; source: E. coli (BL21(DE3), pLysS BL21(DE3), CodonPlusRIL or BL21(Rosetta)), purified
B2: NPM1 histone binding domain (NPM1^HBD, aa 120-241), tag cleaved (domain or fragment, UniProt P06748 120-241, looked up)
chain: EEDAESEDEEEEDVKLLSISGKRSAPGGGSKVPQKKVKLAADEDDDDDDEEDDDEDDDDDDFDDEEAEEKAPVKKSIRDTPAKNAQKSNQNGKDSKPSSTPRSKGQESFKKQEKTPKTPKGP
notes: source: E. coli (BL21(DE3), pLysS BL21(DE3), CodonPlusRIL or BL21(Rosetta)), purified
B3: HIV-1 Rev full-length (Rev^FL, aa 1-116), tag cleaved (natural protein)
chain: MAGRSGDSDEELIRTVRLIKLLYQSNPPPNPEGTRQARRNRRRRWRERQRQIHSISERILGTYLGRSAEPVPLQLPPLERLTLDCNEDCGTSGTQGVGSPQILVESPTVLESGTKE
B4: NPM1 oligomerization domain (NPM1^OD, aa 1-122), tag cleaved (domain or fragment, UniProt P06748 1-122, looked up)
chain: MEDSMDMDMSPLRPQNYLFGCELKADKDYHFKVDNDENEHQLSLRTVSLGAGAKDELHIVEAEAMNYEGSPIKVTLATLKMSVQPTVSLGGFEITPPVVLRLKCGSGPVHISGQHLVAVEED
notes: as for B2

How the values were obtained:
[1] = target: FITC-labelled CIGB-300; experiment: fluorescence polarisation; increasing amounts of NPM1 variants, GST-Rev, GST-US11 or GST titrated into 0.1 uM FITC-labelled CIGB-300; 25 C; 30 mM Tris/HCl pH 7.5, 150 mM NaCl, 5 mM MgCl2, 1 mM TCEP; quadratic ligand binding equation
[2] = target: HSV-1 US11 full-length (US11^FL, aa 1-152), tag-free (HSV-1) (UniProt P04487); experiment: ITC; 1.2 mM NPM1^FL titrated into 60 uM US11^FL; both treated with RNase A; 25 C; apparent Kd; endothermic
[3] = target: HSV-1 US11 full-length (US11^FL, aa 1-152), tag-free (HSV-1) (UniProt P04487); experiment: SEC-MALS; aSEC (Superdex 200 10/300) with MALS/RI of NPM1^OD, US11^FL and their mixture, RNase A treated; 30 mM Tris-HCl pH 7.5, 150 mM NaCl, 5 mM MgCl2, 3 mM DTT
[4] = target: B3; experiment: ITC; NPM1 variants titrated into Rev^FL (tags cleaved); 25 C; 30 mM Tris-HCl pH 7.5, 150 mM NaCl, 5 mM MgCl2, 1 mM TCEP; VP-ITC; conditions: both partners purified
[5] = target: B1; experiment: as above; conditions: both partners purified
[6] = target: B4; experiment: as above; conditions: both partners purified
[7] = target: B2; experiment: as above; conditions: both partners purified
[8] = target: T1, NPM1 full-length (NPM1^FL, aa 1-294), tag cleaved (UniProt P06748 1-294); experiment: as above; conditions: both partners purified
T1 construct: source: E. coli (BL21(DE3), pLysS BL21(DE3), CodonPlusRIL or BL21(Rosetta)), purified

[9] = target: the molecule itself; experiment: SEC-MALS; aSEC (Superdex 200 10/300) with MALS/RI of NPM1^OD, US11^FL and their mixture, RNase A treated; 30 mM Tris-HCl pH 7.5, 150 mM NaCl, 5 mM MgCl2, 3 mM DTT

Molecule | Kd [1] [µM] | dH [4] [kcal/mol] | stoichiometry N [4] [sites] | further results
NPM1 full-length (NPM1^FL, aa 1-294), tag cleaved (from UniProt P06748 1-294) (natural protein) | 1.4 | – | – | Kd [2]: 4 µM
NPM1 oligomerization domain (NPM1^OD, aa 1-122), tag cleaved (from UniProt P06748 1-122) (domain or fragment) | 6.6 | – | – | stoichiometry N (US11^FL monomer per NPM1^OD pentamer) [3]: 1
B1 | – | -3.23 ± 0.31 | 0.76 | –
B2 | – | -1.71 ± 0.2 | 0.85 | –
B3 | – | – | – | Kd [5]: 18 µM; Kd [6]: 0.013 µM; Kd [7]: 5.8 µM; Kd [8]: 0.41 µM
B4 | – | -3.79 ± 0.11 | 0.94 | stoichiometry N [9]: 5
